Results from US20140193915, “COMPOSITIONS AND METHODS FOR CUSTOM SITE-SPECIFIC DNA RECOMBINASES” (Monsanto Technology, LLC, published 2014).
Residue numbers refer to the chain shown, from its start.

Columns and labels:
sN-TALER IV-12 = target: T1, sN-TALER IV-12 (synthetic); experiment: cell_activity; E. coli
T1 chain: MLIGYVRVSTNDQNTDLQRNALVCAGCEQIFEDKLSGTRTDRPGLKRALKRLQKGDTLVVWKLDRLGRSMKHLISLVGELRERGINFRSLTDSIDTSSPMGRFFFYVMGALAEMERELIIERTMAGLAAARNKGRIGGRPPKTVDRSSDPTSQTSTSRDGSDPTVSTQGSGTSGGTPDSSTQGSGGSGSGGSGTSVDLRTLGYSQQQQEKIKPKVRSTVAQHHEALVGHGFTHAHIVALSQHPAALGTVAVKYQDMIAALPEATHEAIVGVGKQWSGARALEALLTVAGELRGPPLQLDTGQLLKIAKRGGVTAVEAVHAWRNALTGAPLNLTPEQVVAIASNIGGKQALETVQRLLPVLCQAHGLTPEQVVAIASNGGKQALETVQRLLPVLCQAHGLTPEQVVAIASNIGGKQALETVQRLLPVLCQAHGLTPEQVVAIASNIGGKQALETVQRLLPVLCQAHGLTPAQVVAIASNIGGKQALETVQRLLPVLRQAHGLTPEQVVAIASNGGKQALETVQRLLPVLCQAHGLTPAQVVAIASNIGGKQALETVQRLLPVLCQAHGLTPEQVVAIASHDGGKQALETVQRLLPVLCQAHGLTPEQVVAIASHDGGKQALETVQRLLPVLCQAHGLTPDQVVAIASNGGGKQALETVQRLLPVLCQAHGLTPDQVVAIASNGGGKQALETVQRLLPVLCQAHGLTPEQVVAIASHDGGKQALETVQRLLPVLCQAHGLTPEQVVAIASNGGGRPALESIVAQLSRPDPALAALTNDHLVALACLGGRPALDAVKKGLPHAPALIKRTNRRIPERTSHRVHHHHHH
Protocol: (§1) To test for recombination, E. coli DH5alpha cells were co-transformed with different combinations of TALER expression construct and TALER reporter construct pairs (Tables 6 and 7). The N-TALER expression and reporter constructs were in an approximate 1:1 mass ratio during the transformation. The co-transformed bacteria were plated on media with chloramphenicol, kanamycin, and X-gal then incubated at 37° C. for 18 to 36 hours. Control samples consisted of transformations using the reporter construct alone. Control transformants were similarly plated. The bacterial transformation protocol was either heat shock or electroporation per standard molecular biology techniques.
(§2) The N-TALER expression constructs representing the N-TALER chimeras with varying linker lengths were co-transformed with N-TALER reporter constructs with TALER central sequence lengths of 18, 20, 24, 30, 40, and 50 bp (Table 13). […] Recombination did occur, but was less efficient with the pN-TALER IV-14 (linker length of 71 amino acids) with each of the N-TALER reporters tested.

pN-TALER IV-12 = target: T2, pN-TALER IV-12 (synthetic); experiment: cell_activity; E. coli
T2 chain: T1 chain with V6A, D12G, N14S, N20D, K50E, M70V, I94V, Y106H, M108T, M114V
Protocol: as §1, §2

B1: Gin20TALE+0 (dsDNA)
DNA 1: AGAAGGTATTTATATCCAAAACCATGGTTTACAGTATAAATACCTTCT
DNA 2: AGAAGGTATTTATACTGTAAACCATGGTTTTGGATATAAATACCTTCT
With B1 the activity (sN-TALER IV-12) was 1 score and the activity (pN-TALER IV-12) was 1 score.
